Source: US20240035010, “COMPOSITIONS COMPRISING A VARIANT POLYPEPTIDE AND USES THEREOF” (Arbor Biotechnologies, Inc., published 2024)

Experiments:
Assay in all cases: cell_activity; PAM 5'-ATTG-3'
Conditions in all cases: tags: pcDNA3.1 expression
[1] = target: T1, variant nuclease K35G combination (P14R, D32R, I61R, E311R, K35G)
T1 chain: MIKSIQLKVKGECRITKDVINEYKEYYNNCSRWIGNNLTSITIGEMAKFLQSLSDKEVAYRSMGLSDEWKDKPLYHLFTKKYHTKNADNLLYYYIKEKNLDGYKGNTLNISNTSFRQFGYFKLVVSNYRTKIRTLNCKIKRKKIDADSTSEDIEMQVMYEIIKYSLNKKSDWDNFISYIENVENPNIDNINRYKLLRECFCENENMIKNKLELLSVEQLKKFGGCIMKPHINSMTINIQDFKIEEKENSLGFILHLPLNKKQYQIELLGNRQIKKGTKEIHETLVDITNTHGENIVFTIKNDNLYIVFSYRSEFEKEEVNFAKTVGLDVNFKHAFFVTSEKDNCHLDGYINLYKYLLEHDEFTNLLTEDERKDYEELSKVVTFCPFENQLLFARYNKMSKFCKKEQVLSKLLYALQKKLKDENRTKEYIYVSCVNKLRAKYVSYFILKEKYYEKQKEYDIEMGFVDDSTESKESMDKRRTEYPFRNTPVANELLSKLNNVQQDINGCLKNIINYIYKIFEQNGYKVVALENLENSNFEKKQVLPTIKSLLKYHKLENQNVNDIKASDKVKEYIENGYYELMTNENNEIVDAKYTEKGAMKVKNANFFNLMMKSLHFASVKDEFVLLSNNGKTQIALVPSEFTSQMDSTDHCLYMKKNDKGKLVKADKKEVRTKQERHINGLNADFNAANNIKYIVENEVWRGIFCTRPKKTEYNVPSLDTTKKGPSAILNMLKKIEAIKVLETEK

[2] = target: T2, variant nuclease E154G combination (P14R, D32R, I61R, E311R, E154G)
T2 chain: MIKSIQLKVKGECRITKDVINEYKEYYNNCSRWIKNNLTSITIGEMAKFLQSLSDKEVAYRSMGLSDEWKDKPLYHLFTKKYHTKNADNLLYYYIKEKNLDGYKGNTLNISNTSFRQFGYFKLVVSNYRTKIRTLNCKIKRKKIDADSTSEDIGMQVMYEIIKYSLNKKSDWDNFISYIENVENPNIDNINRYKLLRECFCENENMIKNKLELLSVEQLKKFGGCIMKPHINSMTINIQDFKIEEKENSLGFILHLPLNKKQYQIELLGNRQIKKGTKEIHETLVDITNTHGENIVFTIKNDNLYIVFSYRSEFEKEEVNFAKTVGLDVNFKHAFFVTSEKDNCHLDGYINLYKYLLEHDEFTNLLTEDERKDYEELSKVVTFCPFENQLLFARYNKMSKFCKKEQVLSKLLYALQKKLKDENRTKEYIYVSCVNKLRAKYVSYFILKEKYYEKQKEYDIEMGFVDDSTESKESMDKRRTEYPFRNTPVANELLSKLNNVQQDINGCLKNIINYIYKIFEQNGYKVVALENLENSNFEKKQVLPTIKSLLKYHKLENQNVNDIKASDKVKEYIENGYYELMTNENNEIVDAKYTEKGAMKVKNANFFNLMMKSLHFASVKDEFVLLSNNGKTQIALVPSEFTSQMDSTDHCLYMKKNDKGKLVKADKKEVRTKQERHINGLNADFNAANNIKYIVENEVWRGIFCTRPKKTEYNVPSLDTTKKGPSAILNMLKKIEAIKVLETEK

[3] = target: T3, variant nuclease D55G/E736G combination (P14R, D32R, I61R, E311R, D55G, E736G)
T3 chain: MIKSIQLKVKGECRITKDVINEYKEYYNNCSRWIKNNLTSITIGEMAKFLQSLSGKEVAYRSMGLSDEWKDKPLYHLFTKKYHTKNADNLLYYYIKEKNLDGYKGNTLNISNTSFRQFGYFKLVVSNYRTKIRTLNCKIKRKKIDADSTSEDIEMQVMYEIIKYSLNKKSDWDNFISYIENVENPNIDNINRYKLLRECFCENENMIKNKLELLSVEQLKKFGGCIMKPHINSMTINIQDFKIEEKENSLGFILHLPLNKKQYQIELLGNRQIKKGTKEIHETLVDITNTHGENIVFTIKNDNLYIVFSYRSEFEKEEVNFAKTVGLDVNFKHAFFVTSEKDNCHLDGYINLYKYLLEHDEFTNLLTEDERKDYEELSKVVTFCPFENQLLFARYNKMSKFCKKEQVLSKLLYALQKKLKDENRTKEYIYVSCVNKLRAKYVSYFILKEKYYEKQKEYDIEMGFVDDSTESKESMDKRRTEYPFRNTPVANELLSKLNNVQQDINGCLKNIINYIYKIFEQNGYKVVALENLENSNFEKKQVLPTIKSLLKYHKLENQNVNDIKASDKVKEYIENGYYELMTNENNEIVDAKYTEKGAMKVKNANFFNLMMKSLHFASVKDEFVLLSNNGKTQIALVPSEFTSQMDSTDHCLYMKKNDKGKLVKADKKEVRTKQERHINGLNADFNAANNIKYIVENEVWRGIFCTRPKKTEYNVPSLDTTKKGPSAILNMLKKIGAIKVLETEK

B1: EMX1 crRNA ; EMX1 target (ssRNA ; dsDNA)
RNA: CUUGUUGUAUAUGUCCUUUUAUAGGUAUUAAACAACCCGCCGCUUCCUGAGCCAUC
DNA 1: CCGCCGCTTCCTGAGCCATC
DNA 2: GATGGCTCAGGAAGCGGCGG
Q: Which results are given for B1?
A: indel editing activity [1]: 6.93 fold of WT; indel editing activity [2]: 6.04 fold of WT; indel editing activity [3]: 10.5 fold of WT
